In publication doi:10.1101/2022.10.23.513379 (bioRxiv, 2022):

Legend:
[1] = target: T1, His-tagged wildtype SARS-CoV-2 RBD (BEI NR52309) (SARS-CoV-2, wildtype (Wuhan-Hu-1), UniProt P0DTC2); test: crystal structure
[2] = target: T1, His-tagged wildtype SARS-CoV-2 RBD (BEI …); test: BLI

| Binder | binding result [1] | binding result [2] |
| --- | --- | --- |
| 80 Fab (Fab, V domains shown) VH: QVQLVQSGAEVKKPGSSVKVSCKASGGTFNRYAFSWVRQAPGQGLEWMGGIIPIFGTANYAQKFQGRVTITADESTSTAYMELSSLRSEDTAVYYCARSTRELPEVVDWYFDLWGRGTLVTVSS VL: not shown | binds | – |
| 80 MB (mono-specific Multabody of specificity 80) (complex) VH: QVQLVQSGAEVKKPGSSVKVSCKASGGTFNRYAFSWVRQAPGQGLEWMGGIIPIFGTANYAQKFQGRVTITADESTSTAYMELSSLRSEDTAVYYCARSTRELPEVVDWYFDLWGRGTLVTVSS VL: not shown | – | binds |
| 80 IgG (antibody, V domains shown) VH: QVQLVQSGAEVKKPGSSVKVSCKASGGTFNRYAFSWVRQAPGQGLEWMGGIIPIFGTANYAQKFQGRVTITADESTSTAYMELSSLRSEDTAVYYCARSTRELPEVVDWYFDLWGRGTLVTVSS VL: not shown | – | binds |
| 2-7 MB (mono-specific Multabody of specificity 2-7) (complex) VH: QITLKESGPTLVKPTQTLTLTCTFSGFSLSTSGVGVGWIRQPPGKALEWLALIYWDDDKRYSPSLKSRLTITKDTSKNQVVLTMTNMDPVDTATYYCAHHKIERIFDYWGQGTLVTVSS VL: SALAQPASVSGSPGQSITISCTGTSSDVGAYNYVSWYQQHPGKAPKLMIYDVSKRPSGVSNRFSGSKSGNTASLTISGLQAEDEADYYCSSYTTSSTVFGGGTKLTVL | – | binds |
| 2-7 IgG (antibody, V domains shown) VH: QITLKESGPTLVKPTQTLTLTCTFSGFSLSTSGVGVGWIRQPPGKALEWLALIYWDDDKRYSPSLKSRLTITKDTSKNQVVLTMTNMDPVDTATYYCAHHKIERIFDYWGQGTLVTVSS VL: SALAQPASVSGSPGQSITISCTGTSSDVGAYNYVSWYQQHPGKAPKLMIYDVSKRPSGVSNRFSGSKSGNTASLTISGLQAEDEADYYCSSYTTSSTVFGGGTKLTVL | – | binds |
